This is an account of results in patent publication US20220380432A1, “Acylated Calcitonin Mimetics” (KeyBioscience AG, priority 2018, published 2022).

One experiment concerns 20 week HFD SD rats. Nature of the experiment: Single dose food intake and body weight test in HFD SD rats (Examples 3, 4, 5, 8, 10, 12). The format is in vivo, rat. Conditions: for Food Intake ΔFOOD Sustained Attenuation (36 nmol/kg) Hours: 36 nmol/kg single dose. From the text: In the animal model studies, 12 week healthy Sprague Dawley (SD) rats were used to assess the potency of the acylated KBPs. In some examples they were fed normal chow during prior and during the tests, whereas in other examples, the 12 week healthy SD rats were fed high fat diet (HFD) for eight weeks prior to the test and for the duration of the test.
Rats were single caged four days prior to the test. Rats were randomized by weight into eleven groups (Vehicle (0.9% NaCl), KBPs (doses: 36 nmol/kg (150-157 μg/kg)). They were fasted overnight and then treated with a single dose of peptide or vehicle in the morning using subcutaneous administration. Food intake was monitored in the following intervals (0-4 hours, 4-24 hours, 24-48 hours . . . 144-168 hours). Body weight was measured at baseline and every 24 hours post s.c injection.
Rats were single caged four days prior to the test. Rats were randomized by weight into eleven groups (Vehicle (0.9% NaCl), KBPs (doses: 4 nmol/kg (^17 μg/kg), 12 nmol/kg (^50 μg/kg) or 36 nmol/kg ([…])). They were fasted overnight and then treated with a single dose of peptide or vehicle in the morning using subcutaneous administration. Food intake was monitored in the following intervals (0-4 hours, 4-24 hours, 24-48 hours . . . 144-168 hours). Body weight was measured at baseline and every 24 hours post s.c injection.
Single high dose effect of A11/3 acylated variants of KBP-042 and KBP-066 on food intake and body weight in 20 week HFD SD rats. Rats were single caged four days prior to the test. Rats were randomized by weight into eleven groups (Vehicle (0.9% NaCl), KBPs (doses: 300 nmol/kg (^1000 μg/kg)).
The rats were fasted overnight and then treated with a single dose of peptide or vehicle in the morning using subcutaneous administration. Food intake was monitored in the following intervals (0-4 hours, 4-24 hours, 24-48 hours . . . […]). Body weight was measured at baseline and every 24 hours post s.c injection.
Rats were single caged four days prior to the test. Rats were randomized by weight into eight groups (Vehicle (0.9% NaCl), KBPs (doses: 3 nmol/kg (^10-11 μg/kg)). They were fasted overnight and then treated with a single dose of peptide or vehicle in the morning using subcutaneous administration. Food intake was monitored in the following intervals (0-4 hours, 4-24 hours, 24-48 hours, 48-72 hours, and 72-96 hours). Body weight was measured at baseline and at 4 hour, 24 hours, 48 hours, 72 hours and 96 hours post s.c injection.
Rats were single caged four days prior to the test. Rats were randomized by weight into eight groups (Vehicle (0.9% NaCl), KBPs (doses: 4 nmol/kg (^10-11 μg/kg)). They were fasted overnight and then treated with a single dose of peptide or vehicle in the morning using subcutaneous administration. Food intake was monitored in the following intervals (0-4 hours, 4-24 hours, 24-48 hours, 48-72 hours, and 72-96 hours). Body weight was measured at baseline and at 4 hour, 24 hours, 48 hours, 72 hours and 96 hours post s.c. injection. Two backbones were tested, KBP-066 and KBP-021.
Rats were single caged four days prior to the test. Rats were randomized by weight into eight groups (Vehicle (0.9% NaCl), KBPs (doses: 4 nmol/kg (^13-14 μg/kg)). They were fasted overnight and then treated with a single dose of peptide or vehicle in the morning using subcutaneous administration. Food intake was monitored in the following intervals (0-4 hours, 4-24 hours, 24-48 hours, 48-72 hours, and 72-96 hours). Body weight was measured at baseline and at 4 hour, 24 hours, 48 hours, 72 hours and 96 hours post s.c injection.

A further experiment concerns the target T1, Amylin Receptor (AMY-R) (Homo sapiens (Human), UniProt P30988).
T1 sequence 1: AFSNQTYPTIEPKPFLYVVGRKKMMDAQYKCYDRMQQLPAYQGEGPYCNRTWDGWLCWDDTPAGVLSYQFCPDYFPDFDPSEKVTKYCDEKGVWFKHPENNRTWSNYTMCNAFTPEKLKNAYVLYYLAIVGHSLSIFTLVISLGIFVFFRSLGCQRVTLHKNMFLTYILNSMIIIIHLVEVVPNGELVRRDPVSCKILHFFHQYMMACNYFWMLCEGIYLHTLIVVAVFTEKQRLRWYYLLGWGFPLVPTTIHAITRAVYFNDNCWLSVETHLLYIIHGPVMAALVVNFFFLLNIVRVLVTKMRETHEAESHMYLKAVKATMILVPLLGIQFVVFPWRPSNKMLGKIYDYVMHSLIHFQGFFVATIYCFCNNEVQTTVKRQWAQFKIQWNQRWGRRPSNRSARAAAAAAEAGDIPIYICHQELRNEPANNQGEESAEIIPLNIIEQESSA
T1 sequence 2: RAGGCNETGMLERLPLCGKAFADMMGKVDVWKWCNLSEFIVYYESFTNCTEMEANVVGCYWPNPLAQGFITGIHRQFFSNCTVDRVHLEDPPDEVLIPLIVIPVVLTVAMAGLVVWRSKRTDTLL
In words: cell-based or functional assay.

The target in experiment [1] is T2, Calcitonin Receptor (CTR) (Homo sapiens (Human), UniProt P30988).
T2 sequence: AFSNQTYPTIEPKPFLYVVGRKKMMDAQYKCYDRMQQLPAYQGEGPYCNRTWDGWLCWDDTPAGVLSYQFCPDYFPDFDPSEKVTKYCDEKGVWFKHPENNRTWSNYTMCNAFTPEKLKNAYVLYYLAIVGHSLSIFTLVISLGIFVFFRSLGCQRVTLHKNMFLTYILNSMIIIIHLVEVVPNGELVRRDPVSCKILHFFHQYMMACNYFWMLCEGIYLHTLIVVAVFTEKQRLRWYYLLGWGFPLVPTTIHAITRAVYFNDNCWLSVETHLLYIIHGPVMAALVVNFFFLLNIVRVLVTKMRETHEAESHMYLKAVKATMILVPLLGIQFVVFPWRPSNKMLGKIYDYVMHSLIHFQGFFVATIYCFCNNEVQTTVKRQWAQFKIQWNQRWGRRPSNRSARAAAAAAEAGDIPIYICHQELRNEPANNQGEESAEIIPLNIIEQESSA
Nature of the experiment: cell-based or functional assay.

Ends that are not written are not given here.

With “KBP-372: KBP-042 core, A11/3 acylation (Ac-CSNLSTCVLGKLSQELHKLQTYPRTDVGANAP-NH2; not fully specified (residue 11); ends and bridges not checked)”, the “Food Intake ΔFOOD Sustained Attenuation (36 nmol/kg) Hours” value (shortened to “Food Intake ΔFOOD Sustained Attenuation”) with 20 week HFD SD rats stood at 96 h. The “protracted in vivo efficacy, high dose test (in words)” value in the experiment on 20 week HFD SD rats (single s.c. dose 300 nmol/kg) is listed as “superior protracted in vivo efficacy that lasted for days”.

On to “KBP-374: KBP-042 core with added C-terminal acylated lysine (A32 type, Table 1) (Ac-CSNLSTCVLGKLSQELHKLQTYPRTDVGANAPK; not fully specified (residue 33); ends and bridges not checked)”, for which the “Food Intake ΔFOOD Sustained Attenuation” value in the experiment with 20 week HFD SD rats was determined as 72 h.

For “KBP-377: KBP-089 core, A32/3 acylation (Ac-CSNLSTCMLGRLSQDLHRLQTYPKTDVGANAPK; not fully specified (residue 33); ends and bridges not checked)”, the “Food Intake ΔFOOD Sustained Attenuation” value in the experiment with 20 week HFD SD rats is given as 72 h.

Regarding Ac-CSNLSTCVLGKLSQELHKLQTYPRTDVGANAP-NH2 (not fully specified (residue 11); ends and bridges not checked) [KBP-372], in the experiment with Amylin Receptor (AMY-R), the “β-arrestin Fold Recruitment EC50 values (10^-09 M)” value is 45.6 nM. Also, in experiment [1], the “β-arrestin Fold Recruitment EC50 values (10^-9 M)” value amounted to 7.8 nM and the “β-arrestin Prolonged CTR response (10 nM) tAUC value 0-72 h” value (shortened to “β-arrestin Prolonged CTR response”) came out at 1300.

In the case of Ac-CSNLSTCMLGRLSQDLHRLQTYPKTDVGANAPK (not fully specified (residue 33); ends and bridges not checked) [KBP-377], the “β-arrestin Fold Recruitment EC50 values (10^-09 M)” value with Amylin Receptor (AMY-R) turned out to be 73.1 nM. Also, in experiment [1], the “β-arrestin Fold Recruitment EC50 values (10^-9 M)” value stood at 66 nM and the “β-arrestin Prolonged CTR response” value worked out at 1400.

As for Ac-CSNLSTCVLGKLSQELHKLQTYPRTDVGANAPK (not fully specified (residue 33); ends and bridges not checked) [KBP-374], the “β-arrestin Fold Recruitment EC50 values (10^-09 M)” value with Amylin Receptor (AMY-R) turned out to be 151 nM. Moreover, in experiment [1], the “β-arrestin Fold Recruitment EC50 values (10^-9 M)” value stood at 49.2 nM and the “β-arrestin Prolonged CTR response” value is 1070.
